The values below come from PMC10511561, “Synergism between CMG helicase and leading strand DNA polymerase at replication fork” (Nature Communications, 2023).

First the molecules themselves.
T1: Mcm5 (subunit of CMG) (yeast, UniProt P29496 1-775)
T1 construct: Mcm5, yeast; Chain of m1 as it stands in the replisome structure; also called Mcm5-CTD; Mcm5-WHD; source: yeast strain yJCZ2, purified as part of CMG (anti-FLAG M2 resin, Mono Q, Superose 6)
T1 sequence: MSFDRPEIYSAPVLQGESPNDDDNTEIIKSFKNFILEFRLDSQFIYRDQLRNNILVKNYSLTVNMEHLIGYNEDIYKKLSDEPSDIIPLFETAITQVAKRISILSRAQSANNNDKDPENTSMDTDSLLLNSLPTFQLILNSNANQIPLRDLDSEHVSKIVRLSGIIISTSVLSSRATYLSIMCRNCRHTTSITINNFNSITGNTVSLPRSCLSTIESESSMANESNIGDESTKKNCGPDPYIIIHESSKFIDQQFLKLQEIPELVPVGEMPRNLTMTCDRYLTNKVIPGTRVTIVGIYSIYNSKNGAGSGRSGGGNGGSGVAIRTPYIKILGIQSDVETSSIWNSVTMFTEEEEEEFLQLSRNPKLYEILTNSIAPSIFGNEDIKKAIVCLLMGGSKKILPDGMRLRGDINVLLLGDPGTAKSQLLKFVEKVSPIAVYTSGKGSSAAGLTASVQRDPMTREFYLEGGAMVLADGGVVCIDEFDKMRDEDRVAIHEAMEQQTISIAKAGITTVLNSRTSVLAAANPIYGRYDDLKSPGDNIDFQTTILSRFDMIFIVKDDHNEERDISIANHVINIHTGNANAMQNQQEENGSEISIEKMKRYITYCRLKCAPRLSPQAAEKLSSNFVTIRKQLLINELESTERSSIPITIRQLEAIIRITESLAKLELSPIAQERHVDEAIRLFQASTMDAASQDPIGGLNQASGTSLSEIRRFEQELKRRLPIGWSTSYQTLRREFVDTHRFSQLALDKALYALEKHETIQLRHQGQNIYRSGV

T2: Mcm4 (subunit of CMG) (yeast, UniProt P30665 1-933)
T2 construct: Mcm4, yeast; Chain of m1 as it stands in the replisome structure; source: yeast strain yJCZ2, purified as part of CMG (anti-FLAG M2 resin, Mono Q, Superose 6)
T2 sequence: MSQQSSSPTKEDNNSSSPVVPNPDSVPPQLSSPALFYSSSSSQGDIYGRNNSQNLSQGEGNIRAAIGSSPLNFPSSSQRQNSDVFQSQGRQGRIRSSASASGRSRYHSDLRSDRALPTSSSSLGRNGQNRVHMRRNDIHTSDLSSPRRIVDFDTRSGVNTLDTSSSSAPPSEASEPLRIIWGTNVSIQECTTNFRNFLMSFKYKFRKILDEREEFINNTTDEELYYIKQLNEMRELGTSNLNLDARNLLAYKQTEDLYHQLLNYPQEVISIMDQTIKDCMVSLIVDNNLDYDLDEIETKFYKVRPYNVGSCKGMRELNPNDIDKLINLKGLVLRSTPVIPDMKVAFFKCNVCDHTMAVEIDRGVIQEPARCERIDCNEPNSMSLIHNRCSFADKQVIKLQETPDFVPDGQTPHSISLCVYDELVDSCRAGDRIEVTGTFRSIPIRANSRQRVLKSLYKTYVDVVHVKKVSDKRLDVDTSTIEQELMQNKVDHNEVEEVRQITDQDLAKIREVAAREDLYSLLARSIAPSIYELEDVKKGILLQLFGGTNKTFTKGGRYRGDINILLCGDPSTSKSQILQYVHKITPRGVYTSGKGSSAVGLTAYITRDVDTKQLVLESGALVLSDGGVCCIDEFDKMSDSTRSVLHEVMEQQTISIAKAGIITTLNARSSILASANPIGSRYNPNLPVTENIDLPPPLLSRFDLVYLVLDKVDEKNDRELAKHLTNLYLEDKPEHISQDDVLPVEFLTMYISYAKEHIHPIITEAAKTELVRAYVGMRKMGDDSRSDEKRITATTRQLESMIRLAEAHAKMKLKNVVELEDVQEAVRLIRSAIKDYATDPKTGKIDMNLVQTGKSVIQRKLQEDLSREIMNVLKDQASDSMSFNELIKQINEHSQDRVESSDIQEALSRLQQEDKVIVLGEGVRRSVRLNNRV

B1: Dpb2 (subunit of Polε in the replisome) (natural protein, yeast)
chain: MFGSGNVLPVKIQPPLLRPLAYRVLSRKYGLSIKSDGLSALAEFVGTNIGANWRQGPATIKFLEQFAAVWKQQERGLFIDQSGVKEVIQEMKEREKVEWSHEHPIQHEENILGRTDDDENNSDDEMPIAADSSLQNVSLSSPMRQPTERDEYKQPFKPESSKALDWRDYFKVINASQQQRFSYNPHKMQFIFVPNKKQNGLGGIAGFLPDIEDKVQMFLTRYYLTNDRVMRNENFQNSDMFNPLSSMVSLQNELSNTNRQQQSSSMSITPIKNLLGRDAQNFLLLGLLNKNFKGNWSLEDPSGSVEIDISQTIPTQGHYYVPGCMVLVEGIYYSVGNKFHVTSMTLPPGERREITLETIGNLDLLGIHGISNNNFIARLDKDLKIRLHLLEKELTDHKFVILGANLFLDDLKIMTALSKILQKLNDDPPTLLIWQGSFTSVPVFASMSSRNISSSTQFKNNFDALATLLSRFDNLTENTTMIFIPGPNDLWGSMVSLGASGTLPQDPIPSAFTKKINKVCKNVVWSSNPTRIAYLSQEIVIFRDDLSGRFKRHRLEFPFNESEDVYTENDNMMSKDTDIVPIDELVKEPDQLPQKVQETRKLVKTILDQGHLSPFLDSLRPISWDLDHTLTLCPIPSTMVLCDTTSAQFDLTYNGCKVINPGSFIHNRRARYMEYVPSSKKTIQEEIYI
notes: Dpb2, yeast, subunit of Polε; NTD 12-98, linker 99-156, PDE domain 157-689 as printed; Chain of m2 as it stands in the replisome structure; also called Dpb2-NTD; Dpb2-OB; source: yeast strain yAJ2, purified as part of Polε (calmodulin resin, TEV elution, Mono Q, Superose 6)
B2: Mcm7 (subunit of CMG) (natural protein, yeast)
chain: MSAALPSIQLPVDYNNLFNEITDFLVTFKQDTLSSDATRNENEDENLDAENIEQHLLEKGPKYMAMLQKVANRELNSVIIDLDDILQYQNEKFLQGTQADDLVSAIQQNANHFTELFCRAIDNNMPLPTKEIDYKDDVLDVILNQRRLRNERMLSDRTNEIRSENLMDTTMDPPSSMNDALREVVEDETELFPPNLTRRYFLYFKPLSQNCARRYRKKAISSKPLSVRQIKGDFLGQLITVRGIITRVSDVKPAVEVIAYTCDQCGYEVFQEVNSRTFTPLSECTSEECSQNQTKGQLFMSTRASKFSAFQECKIQELSQQVPVGHIPRSLNIHVNGTLVRSLSPGDIVDVTGIFLPAPYTGFKALKAGLLTETYLEAQFVRQHKKKFASFSLTSDVEERVMELITSGDVYNRLAKSIAPEIYGNLDVKKALLLLLVGGVDKRVGDGMKIRGDINVCLMGDPGVAKSQLLKAICKISPRGVYTTGKGSSGVGLTAAVMKDPVTDEMILEGGALVLADNGICCIDEFDKMDESDRTAIHEVMEQQTISISKAGINTTLNARTSILAAANPLYGRYNPRLSPLDNINLPAALLSRFDILFLMLDIPSRDDDEKLAEHVTYVHMHNKQPDLDFTPVEPSKMREYIAYAKTKRPVMSEAVNDYVVQAYIRLRQDSKREMDSKFSFGQATPRTLLGIIRLSQALAKLRLADMVDIDDVEEALRLVRVSKESLYQETNKSKEDESPTTKIFTIIKKMLQETGKNTLSYENIVKTVRLRGFTMLQLSNCIQEYSYLNVWHLINEGNTLKFVDDGTMDTDQEDSLVSTPKLAPQTTASANVSAQDSDIDLQDA
notes: Mcm7, yeast; Chain of m1 as it stands in the replisome structure; source: yeast strain yJCZ2, purified as part of CMG (anti-FLAG M2 resin, Mono Q, Superose 6)
B3: Psf1 (subunit of GINS in CMG) (natural protein, yeast)
chain: MYGDLGNKLVLEAKRTKQLYARSNQDVNLPMYHEDIIRNILKEVSNLRKNTEYLKEQQQLGMLDDKVAKCQYFVTLLCMERNKRCLLAYQRLRTDILDSMAWNNNGLDLMSSITFSQQDTNNLSHQEQEYLKEYCDLITDLKSGDLVDIDLSGSLVPPSDVFIDVRVLKDAGEIQTEYGVFNLIKDSQFFVRQSDVERLIQQGYLQKI
notes: Psf1, yeast, subunit of GINS; Chain of m1 as it stands in the replisome structure; also called Psf1 B domain; Psf1-B domain; source: yeast strain yJCZ2, purified as part of CMG (anti-FLAG M2 resin, Mono Q, Superose 6)

Holding throughout (test): cryo-EM structure; replisome assembled at room temperature from 0.7 uM CMG, forked DNA and ATPγS, then 1.5 molar excess of Polε, Ctf4, Tof1-Csm3; 100 mM KCl, 25 mM HEPES pH 7.6, 4 mM MgCl2, 4 mM ATPγS; 10-30% glycerol gradient with glutaraldehyde fixation; States I-VI by 3D classification
Common to all, as to settings: both partners purified

The target in one assay is T1, Mcm5 (subunit of CMG).
Another assay addresses T3, Mcm3 (subunit of CMG) (yeast, UniProt P24279 1-971).
T3 construct: Mcm3, yeast; Chain of m1 as it stands in the replisome structure; source: yeast strain yJCZ2, purified as part of CMG (anti-FLAG M2 resin, Mono Q, Superose 6)

The target of the next assay is T2, Mcm4 (subunit of CMG).
The next assay concerns the target T4, Tof1-Csm3 (yeast, UniProt P53840 1-1238; Q04659 1-317).
T4 construct: Tof1, yeast; Csm3, yeast; Purified beforehand as one complex; also called Tof1 and Csm3; components of the fork protection complex (FPC); source: yeast strain yAE48, galactose-induced, purified (calmodulin resin, TEV elution, Mono Q, Superose 6); not shown: CBP, N-terminal, cleaved

In assay [1] the target is B1.

T3 sequence (P24279 whole entry): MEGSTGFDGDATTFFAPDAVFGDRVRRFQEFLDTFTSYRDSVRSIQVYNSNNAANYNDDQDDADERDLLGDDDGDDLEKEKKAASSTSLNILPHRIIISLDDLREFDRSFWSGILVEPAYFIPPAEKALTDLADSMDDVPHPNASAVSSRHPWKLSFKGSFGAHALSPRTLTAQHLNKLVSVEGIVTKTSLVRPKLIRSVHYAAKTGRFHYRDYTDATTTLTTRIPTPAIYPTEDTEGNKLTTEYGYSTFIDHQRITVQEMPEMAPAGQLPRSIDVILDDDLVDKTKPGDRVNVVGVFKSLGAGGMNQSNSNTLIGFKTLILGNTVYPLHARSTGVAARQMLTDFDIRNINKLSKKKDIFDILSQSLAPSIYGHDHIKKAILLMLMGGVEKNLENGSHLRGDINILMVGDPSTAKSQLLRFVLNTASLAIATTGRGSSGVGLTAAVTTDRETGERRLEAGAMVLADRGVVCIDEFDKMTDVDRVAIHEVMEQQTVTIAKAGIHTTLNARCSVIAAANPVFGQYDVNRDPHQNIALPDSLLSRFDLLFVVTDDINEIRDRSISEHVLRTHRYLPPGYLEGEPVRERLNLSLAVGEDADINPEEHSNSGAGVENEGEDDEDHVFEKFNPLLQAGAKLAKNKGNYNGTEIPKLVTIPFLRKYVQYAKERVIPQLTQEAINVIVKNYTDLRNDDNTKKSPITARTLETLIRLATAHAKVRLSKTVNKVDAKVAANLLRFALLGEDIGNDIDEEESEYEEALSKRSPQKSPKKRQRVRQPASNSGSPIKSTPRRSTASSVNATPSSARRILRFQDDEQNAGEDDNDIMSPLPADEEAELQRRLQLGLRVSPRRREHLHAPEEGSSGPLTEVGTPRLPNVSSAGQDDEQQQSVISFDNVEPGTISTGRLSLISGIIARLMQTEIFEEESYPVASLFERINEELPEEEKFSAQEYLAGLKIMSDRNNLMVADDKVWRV
T4 sequence (P53840 whole entry, chain 1 of 2): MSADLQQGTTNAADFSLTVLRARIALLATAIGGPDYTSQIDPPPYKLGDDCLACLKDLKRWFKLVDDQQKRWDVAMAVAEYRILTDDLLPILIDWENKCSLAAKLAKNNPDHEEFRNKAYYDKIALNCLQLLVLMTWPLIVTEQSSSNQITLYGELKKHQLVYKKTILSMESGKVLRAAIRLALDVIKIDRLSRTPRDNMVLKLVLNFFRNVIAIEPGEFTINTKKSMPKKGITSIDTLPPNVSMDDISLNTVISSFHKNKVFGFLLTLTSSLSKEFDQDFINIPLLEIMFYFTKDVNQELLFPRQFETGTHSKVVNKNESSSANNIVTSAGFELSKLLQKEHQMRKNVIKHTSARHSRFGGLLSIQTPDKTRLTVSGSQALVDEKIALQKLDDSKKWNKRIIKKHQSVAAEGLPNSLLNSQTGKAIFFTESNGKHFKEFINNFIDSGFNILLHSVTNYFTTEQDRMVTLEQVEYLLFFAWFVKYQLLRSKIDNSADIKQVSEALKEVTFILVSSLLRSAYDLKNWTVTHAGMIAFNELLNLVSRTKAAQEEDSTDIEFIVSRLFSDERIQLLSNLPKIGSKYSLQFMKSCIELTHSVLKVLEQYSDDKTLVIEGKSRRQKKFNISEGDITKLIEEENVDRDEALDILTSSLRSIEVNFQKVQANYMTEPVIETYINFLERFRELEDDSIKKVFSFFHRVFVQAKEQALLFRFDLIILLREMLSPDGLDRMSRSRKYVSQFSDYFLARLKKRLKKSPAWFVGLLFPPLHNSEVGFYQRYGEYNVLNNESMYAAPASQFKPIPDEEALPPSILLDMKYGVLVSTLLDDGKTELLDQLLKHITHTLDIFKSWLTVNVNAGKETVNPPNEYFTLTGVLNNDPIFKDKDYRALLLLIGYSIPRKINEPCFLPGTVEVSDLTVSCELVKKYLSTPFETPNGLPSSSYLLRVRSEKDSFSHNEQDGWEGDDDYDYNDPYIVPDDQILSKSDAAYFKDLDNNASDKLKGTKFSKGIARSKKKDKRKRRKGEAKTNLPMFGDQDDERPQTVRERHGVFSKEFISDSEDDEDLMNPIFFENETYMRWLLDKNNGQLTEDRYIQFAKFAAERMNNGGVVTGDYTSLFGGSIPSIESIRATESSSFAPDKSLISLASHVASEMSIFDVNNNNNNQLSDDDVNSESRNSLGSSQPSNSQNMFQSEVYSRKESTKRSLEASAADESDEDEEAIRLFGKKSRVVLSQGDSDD
T4 sequence (Q04659 whole entry, chain 2 of 2): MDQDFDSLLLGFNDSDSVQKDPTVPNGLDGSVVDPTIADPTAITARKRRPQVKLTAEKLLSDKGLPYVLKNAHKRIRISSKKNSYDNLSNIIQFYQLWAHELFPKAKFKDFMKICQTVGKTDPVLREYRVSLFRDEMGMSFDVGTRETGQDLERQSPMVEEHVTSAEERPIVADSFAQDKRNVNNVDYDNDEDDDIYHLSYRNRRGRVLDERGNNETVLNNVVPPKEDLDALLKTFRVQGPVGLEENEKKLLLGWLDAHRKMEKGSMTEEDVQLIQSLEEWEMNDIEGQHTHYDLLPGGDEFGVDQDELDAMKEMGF

B1: the binding result with Mcm5 (subunit of CMG) and with Mcm3 (subunit of CMG) was “binds” throughout.

Consider B2, for which the binding result with Mcm4 (subunit of CMG), with Mcm3 (subunit of CMG) and with Tof1-Csm3 was “binds” each time.

For the molecule B3, the binding result in assay [1] is “binds”.
